# Values quoted from earlier work as cited in article PMC5325457.
# pKd: −log10 of the molar value.
# Target: Mms2 (Homo sapiens) (UniProt Q15819)
# UniProt Q15819, sequence (Q15819 2-145): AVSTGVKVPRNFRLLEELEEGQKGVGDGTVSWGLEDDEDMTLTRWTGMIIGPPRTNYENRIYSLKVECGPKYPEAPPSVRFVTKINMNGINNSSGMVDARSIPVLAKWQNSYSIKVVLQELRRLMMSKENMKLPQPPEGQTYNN
substance,measurement,value
Ubc13 (from UniProt P61088),pKd,7.31
